The values below are quoted from earlier work in article PMC4019842.

The Kd is the free concentration of one partner at which half of the binding sites on the other are occupied at equilibrium, for simple one-to-one binding.

For the series, the target named is holo-transferrin (Homo sapiens) (UniProt P02787).
Chain of UniProt P02787 (P02787 20-698): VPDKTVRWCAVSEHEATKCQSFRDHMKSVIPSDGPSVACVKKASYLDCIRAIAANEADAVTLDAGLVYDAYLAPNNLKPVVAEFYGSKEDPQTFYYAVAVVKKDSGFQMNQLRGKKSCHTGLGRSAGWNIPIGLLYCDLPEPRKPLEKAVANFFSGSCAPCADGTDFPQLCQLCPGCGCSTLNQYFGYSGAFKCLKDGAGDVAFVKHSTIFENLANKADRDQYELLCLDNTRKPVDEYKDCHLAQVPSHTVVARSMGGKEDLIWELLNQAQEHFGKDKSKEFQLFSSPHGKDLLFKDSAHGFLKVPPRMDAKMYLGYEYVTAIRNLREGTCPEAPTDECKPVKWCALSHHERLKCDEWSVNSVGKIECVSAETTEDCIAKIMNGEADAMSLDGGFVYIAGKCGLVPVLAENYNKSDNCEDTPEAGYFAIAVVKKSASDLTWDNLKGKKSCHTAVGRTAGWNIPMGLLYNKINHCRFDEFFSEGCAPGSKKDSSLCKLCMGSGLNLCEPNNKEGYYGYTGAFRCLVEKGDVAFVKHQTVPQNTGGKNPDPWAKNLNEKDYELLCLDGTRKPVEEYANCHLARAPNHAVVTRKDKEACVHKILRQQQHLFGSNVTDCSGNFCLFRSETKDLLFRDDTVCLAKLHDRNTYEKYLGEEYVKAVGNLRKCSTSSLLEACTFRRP

As to TFR2 (from UniProt Q9UP52), the Kd was 30 nM.
